Values belong to the substance of their own block, whether it stands above or below them.
Experiments:
[1] = target: gastrin releasing peptide receptor (GRP-R) (human) (UniProt P30550); assay: competition with 67Ga-AMBA, PC-3 cells
[2] = target: gastrin releasing peptide receptor (GRP-R) (human) (UniProt P30550); assay: competition with 177Lu-AMBA, PC-3 cells
[3] = target: gastrin releasing peptide receptor (GRP-R) (human) (UniProt P30550); assay: competition with 125I-universal ligand, receptor autoradiography on human tumour tissue
[4] = target: human neuromedin-B preferring receptor (NMB-R) (human) (UniProt P28336); assay: as above
Chain of human neuromedin-B preferring receptor (NMB-R) (human) (P28336 whole entry): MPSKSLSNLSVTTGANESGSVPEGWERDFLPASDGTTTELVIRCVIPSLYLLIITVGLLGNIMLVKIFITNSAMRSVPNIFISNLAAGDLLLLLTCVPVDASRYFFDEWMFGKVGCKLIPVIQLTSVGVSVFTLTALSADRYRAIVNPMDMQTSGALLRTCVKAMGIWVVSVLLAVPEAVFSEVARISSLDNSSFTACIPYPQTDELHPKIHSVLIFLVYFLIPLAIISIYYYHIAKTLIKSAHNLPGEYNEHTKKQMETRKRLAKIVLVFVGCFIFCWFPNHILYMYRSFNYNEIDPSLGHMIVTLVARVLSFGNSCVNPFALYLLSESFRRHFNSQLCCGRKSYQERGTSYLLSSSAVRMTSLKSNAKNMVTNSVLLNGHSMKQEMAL

[5] = target: gastrin releasing peptide receptor (GRP-R) (human) (UniProt P30550); assay: saturation binding, PC-3 cells, calculated from Bmax
[6] = target: gastrin releasing peptide receptor (GRP-R) (human) (UniProt P30550); assay: saturation binding of carrier-added radioligand, PC-3 cells, 4 C

Chain of gastrin releasing peptide receptor (GRP-R) (human) (P30550 whole entry): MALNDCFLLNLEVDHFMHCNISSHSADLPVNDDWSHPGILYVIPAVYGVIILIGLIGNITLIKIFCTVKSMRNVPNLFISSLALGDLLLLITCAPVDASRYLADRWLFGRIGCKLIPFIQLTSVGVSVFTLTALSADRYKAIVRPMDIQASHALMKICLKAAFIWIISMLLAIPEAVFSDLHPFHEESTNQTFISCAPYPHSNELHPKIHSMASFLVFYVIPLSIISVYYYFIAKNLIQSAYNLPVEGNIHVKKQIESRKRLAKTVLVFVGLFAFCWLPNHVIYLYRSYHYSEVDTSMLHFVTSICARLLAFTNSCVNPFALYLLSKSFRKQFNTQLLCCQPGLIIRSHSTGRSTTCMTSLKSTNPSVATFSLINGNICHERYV

EC50 [1]: 1 nM | EC50 [2]: 1.15 nM
Substance: Ga-AMBA (non-radioactive gallium complex of AMBA) (peptide)

IC50 [3]: 0.7 nM | IC50 [4]: 0.8 nM
Substance: Universal ligand ([DTyr^6, βAla^11, Phe^13, Nle^14]-BBN(6-14)) (peptide)

Receptors/cell (receptors/cell) [5]: 242000 | Binding capacity (Bmax) (fmoles/1 × 10^6 cells) [6]: 402 | Kd [6]: 0.46 nM
Substance: ^67Ga-AMBA (peptide)
